Common to all, as to test: co-IP with mass spectrometry
One assay deals with RPL36A. Particulars: cross-linked in vivo with formaldehyde, p value 0.13485.
For a further assay, the target named is REP1. Particulars: cross-linked in vivo with formaldehyde, p value 0.25926.
A further assay has as its target RPL13A/B. Particulars: cross-linked in vivo with formaldehyde, p value 0.05060.
A further assay concerns the target HOM2. Particulars: cross-linked in vivo with formaldehyde, p value 0.02371.
The next assay concerns the target SUP35. Particulars: cross-linked in vivo with formaldehyde, p value 0.08282.
The target of the next assay is ARF2. Particulars: cross-linked in vivo with formaldehyde, p value 0.05060.
A further assay has as its target ADO1. Conditions: cross-linked in vivo with formaldehyde, p value 0.02371.
The target in a further assay is TY1B-ER1. Conditions: cross-linked in vivo with formaldehyde, p value 0.21132.
In another assay the target is PFK2. Particulars: cross-linked in vivo with formaldehyde, p value 0.14162.
In the next assay the target is HHF1. Particulars: cross-linked in vivo with formaldehyde, p value 0.08671.
Another assay deals with TY1B-BR. Conditions: cross-linked in vivo with formaldehyde, p value 0.09425.
A further assay deals with ENO1. Conditions: cross-linked in vivo with formaldehyde, p value 0.14901.

Among the data in paper PMC3796546 are ratio to parent and other: sum values, retold here.

“N-terminal 3xHA-tagged wild-type Irc20 (from UniProt Q06554) C1239A”: the ratio to parent with RPL36A was > 4; with REP1, 2; in the assay with RPL13A/B, 2.2; in the assay with HOM2, 2; with SUP35 it was 2.14; with ARF2 it was 2.5. The ratio to parent with ADO1 was 5; with TY1B-ER1, > 6; in the assay with PFK2, 6; with HHF1 it was 2; in the assay with TY1B-BR, > 9; with ENO1, 3.5. The other: sum in the assay with RPL36A (parent: 0) worked out at 4; in the assay with REP1 (parent: 2), 4; in the assay with RPL13A/B (parent: 5) it was 11; with HOM2 (parent: 4), 8; with SUP35 (parent: 7), 15; with ARF2 (parent: 2), 5. Further, the other: sum is 5 with ADO1 (parent: 1); 6 in the assay with TY1B-ER1 (parent: 0); 6 with PFK2 (parent: 1); 8 in the assay with HHF1 (parent: 4); 9 in the assay with TY1B-BR (parent: 0); 7 with ENO1 (parent: 2).
